Test results as given in patent US11667697.

Assays:
Assay in all cases: lysate ELISA
[1] = target: VACV H5 protein (vaccinia virus)
[2] = target: MPXV ortholog of H5 (monkeypox virus)
[3] = target: CPXV ortholog of H5 (cowpox virus)

B1: VACV-308 (antibody, V domains shown)
VH: QVQLVQSGAEVKKPGSSVKVSCKGSGDSFRSYAISWVRQAPGQGLEWMGGIIPRFGTTNYAQKFQDRVTITADKSTTTAYMELRSLKCEDTGVYYCARPQSAYDFGPFDHWGQGTLVTVSS
VL: SYELTQPPSLSVAPGKTARITCGGDNIGSKGVHWYQQKPGQAPVVVISYDSDRPSGIPERFSGSNSGDTATLTISRVEAGDEADYYCHVWHTTTDHYVFGTGTKVTVL
- EC50 [1]: 6 ng/mL
- EC50 [2]: 3 ng/mL
- EC50 [3]: 2 ng/mL
